# Assay results taken from publication PMC13486763.
# Molecular target: Porcine RNA polymerase II (porcine) (UniProt I3LGP4)
# Assay: mass photometry; Pol II or Pol II-Gdown1 complex with GPN1-GPN3 and/or RPAP2 in a 1:2:2 molar ratio, 30 minutes at 4 °C; measured at 20 nM; 20 mM HEPES-NaOH pH 7.9, 100 mM NaCl, 2 mM MgCl2, 10 µM ZnCl2, 1 mM DTT
substance,measurement,value
Porcine RNA polymerase II (from UniProt I3LGP4 127-1300; P60899 1-125; A0A4X1VYD0 1-67; A0A8D0JYF1 1-58) (complex),stoichiometry N,2
